# Where “and” joins values, the source holds several entries; their conditions need not be identical. Identical values can stand only once.
# B1: His-ISCA1 (mouse recombinant ISCA1, mature form) (natural protein, UniProt Q9D924 13-129, looked up)
# chain: VSKRKLQPTRAALTLTPSAVNKIKQLLKDKPEHVGLKVGVRTRGCNGLSYSLEYTKTKGDSDEEVIQDGVRVFIEKKAQLTLLGTEMDYVEDKLSSEFVFNNPNIKGTCGCGESFHV
# notes: ISCA1, mouse, mature form cloned into pET-11a; theoretical mass of the His-tagged monomer 13,898.8 Da; As purified it holds a Fe2S2 cluster; By gel filtration a mixture of dimer (main) and tetramer (minor); also called Fe2S2-ISCA1; source: E. coli BL21(DE3)/pET-ISCA1, purified aerobically (Ni-NTA); not shown: His tag, N-terminal, kept
# B2: His-ISCA2 (mouse recombinant ISCA2, mature form) (natural protein, UniProt Q9DCB8 38-154, looked up)
# chain: TTSSIPEAGEGQIRLTDSCVQRLLEITEGSEFLRLQVEGGGCSGFQYKFSLDTVINPDDRVFEQGGARVVVDSDSLAFVKGAQVDFSQELIRSSFQVLNNPQAQQGCSCGSSFSVKV
# notes: ISCA2, mouse, mature form cloned into pET-11a; theoretical mass of the His-tagged monomer 13,554 Da; As purified it holds a Fe2S2 cluster; also called Fe2S2-ISCA2; source: E. coli BL21(DE3)/pET-ISCA2, purified under anaerobic condition (Ni-NTA); not shown: His tag, N-terminal, kept
# Biological target: the molecule itself
# Test: SEC; analytical Superdex-75, 0.5 ml min^-1, buffer E (100 mM Tris-HCl pH 7.5, 100 mM NaCl, 5 mM DTT), calibrated with molecular weight standards; oligomerization state of the ISCA proteins
row,Protein,stoichiometry N
1,B1,2 and 4
2,B2,2
